Source: the domain aggregation screens of Martell et al. (2025)

Assay: soluble fraction after stress (log2 fold change); higher = more stays soluble; pooled small domains, quantitative proteomics
Conditions: stress: 75 degC
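Also: 20 min heating vs room temperature control held 20 min.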

Sequence	soluble fraction (log2)
HMVTVNAFGKSGPEPAAMTKEALAKGADEVRVIVDSPTAAASVRDFLIGAGLRVQLQDDEGQLIVVGEKK	0.318
HMVVDEQRIQTLVSAAEQNSSDPVPRVTLGNLYFDAEQFEEAVKWYEQALALDPRNVNVSTDLGVGYYY	0.113
HMVVKLTQEQDRFIKTFNDKSLAFYYISSWGWGSFLRNGIGGVYEGDKTPFTLDEKEKMLNAIINGYEVI	-2.02
HMVVKSPLEMAFDKFREMRKKIRKPMTERAEELIWKELSKLAGEDSDLKIEILEQSIRNGWQDVYAVK	-0.623
HMVVLPGEVVALKIIQTGSSKDQGVGYLEDGTMVVVDGAKNSIGKTIEIQISRSHQTVAGRMLFGIAMS	-2.72
HMVVQTELVRISITSLSGEDIRRLVQIKVVGATIEPFEGGGFLITGTAEQIAKAKDFLNSMSTEF	-2.42
HMVVRKHDRYYTPEHRKLLMDTYERTNKYPTKQDMSELAKIIGVLPIKILWWYTHRRRQDRRKGEESSSP	0.0496
HMVVTMEKIVVNDGGIRIDTYLADKLNISRSKVAKMLENNILVNNVKVKPSYKVTNNDIIEVEEYV	-1.86
HMVVVLPGETIKIDLIREGKDKQALGYLEDGTMIVVDNAKHLIGKNVEIEIDNVLPKEAGRVIFASLHGA	-0.388
HMVVVMNADAEADEIKRVKWNLEQMLFRTQVIYGVKRIVIGAIGDQREVDLSEIEQMPKVDKIVRISK	-2.24
HMVVVPDVKGLKIEEAAEFFKNNNLHYNVIDSVFSKDVEPGAIVELSPLAGSKVKEGRIVFITVNALTS	-1.12
HMVVVVELTENEKAVQDVLTKNEGSLEISDLKTKLELSGKQWDKALKGLAKHGITQVAKVDGVVTVSL	-0.381
HMVWMIEKDQSVILVNKLERIQVEALGKALENGNFGDRIRVINNKSGQKLLGIVESEKKIQIISKI	-2.92
HMVYLPGEEIPLKIIQEGKESGQGVGYLEDGTMVVVENGRRYLNQEVLVQVTKILQTNAGRLIFAVP	-2.6
HMVYLPSSIKNIPTKYGEMMVANFKMDELQANSKNGWVSMVISERREPSEKGATHYAYVNTY	0.484
HMVYNQYILTQSVRLREEPGISGRVIRLLETGTTVELVDTVVVNKDDYDWVWVKLSDGAVGWIIKSAIDI	-1.57
HMWDEMKDQKLVEALLLLREDERKLIYQHVFEERTFDDISRINGLPPYKVKGIYYYAIRKIRKWMG	-2.26
HMWGQDVLFTIDKKEFKGKLLEQSDKHTTFLPDGQKTPQKIPNRLIKEIHLGSNKIIDFGNDFLI	-0.19
HMWPDDAIALPTRDGQDVGGAQERTMLAFASGAAGIRTVEEINPDGSITRLRTRYGWPTFETEGARTAAAE	-0.0272
HMWTIDPLDWKTENADQIVEKVMSEAKENAIILLHDRYEASVEAALRIVDLLKEQGYTFVTADKLV	-0.154
HMWTKKELWNAIAKLPKKQRTVVMMRIAQNLPYKDISEITGMSIGSAKVNYHHAVNSLKQWLS	-0.746
HMWTPLVVAVLIGGTHRFGELRAAVGGITPKVLTETLRSMERDGLVVREQTPGVPPRVDYALTPLGA	-0.493

Sequence	soluble fraction (log2)
HMYAGTWISESGQWKYRNDDGSFAKGWFQDLDSRWYYFDANGHMLSDTLTPDGYRLGEDGAWVND	0.0742
HMYDESVFTGEYHYYYEKLSDDDKLIYRQIYAMMQKRMDGISLNTTDTDNVSRIQQFVLLDNPQF	-2.61
HMYDKKVFRLLFILNQLDSRKKVSTGELAKEFNVSPRTVQRDIVLLNTTGFPIISLEKGYHSFMEGFSLK	-1.19
HMYDPVNEIGRVLKKIRQERSLTLDNVAEITGVSKTMLGQIERGVSVPTISVLWKIAKGLQVSLSTLLNE	-3.24
HMYEGLPVTLIIDGRVIEANLAKANRDMAWLERELANSGVRSHHDVFFATLDSRGQLYYQVKN	-1.04
HMYELDIYPNPAIDKINVLLPSSTTLPVKVEIYDIMGKKVNSLLTTKKAFTIETDQFEKGIYFVKA	0.331
HMYELREGDVVSVRILSQTGQNSYIASFAGGRFSVTSERAFAPGTVFSASVSLKDGTLVLSPL	-3.6
HMYFEDEELDRFVGTPAGAYTEEDVEEFRDVLLSLDIEEVPSWVRSLQLRGIDFPETLRPELYLL	-3.01
HMYGQEVKVLGLFGDRAFIKVDEKSAVIRIGQSHQNVQLKSISNQKAILLVDNKDIALGLGDSYQSA	-1.69
HMYGVAEFDEKGNVLSIEEKPVQPKSNYAVVGLYFYPNKVVGVASGIKPSARGELEITTVNQTFLRDEELK	0.204
HMYHNKFADLAGFIAFNEKNEEIFTFGKYKGQNVKEVFQRDIGYYGWLQNADFPLYTKKVFTAIQLRSR	-2.44
HMYHPGFEALREVARQGSFIKAARALGISGPAVSKQIKSLEARLNLVLLHRTTRAVTLTEAGQRLTEILD	-2.14
HMYIDNVTIYDVGFNERIVHALERAGVKNLYDLSQMNFYQLQRIRNLGASSLEKVINRIHSYGILLKNES	-0.902
HMYIEKTAYINDTAVNVRKSATTDSDVIKVLALNTEITIIGEENDWYKVKSGNDIGYIAKRLVSDQKKE	-0.187
HMYIKYETVLQNITERIAALRKNGTLVLDGERTLAAEFDASRGTIRKAMRQLEENGTILREGYVTRILPE	-1.95
HMYIVVPDLSKKDINEVANILAAQSLRFQVIDSANFRSDFPKNAVISQKPLAGSEVKVNKKIYLQLNPS	-0.43
HMYLEARVKSTTPILSKPNELGKSLGKLYTNDFVALVSLHKNGLDSYYRTANGGYINAADVVIDRDV	-1.49
HMYLPLREVVFNALRTAIIHGEFKPGERLMEMHLAKSLGVSRTPVREAMRMLELEGLVVMIPKKGAEVAR	-2.93
HMYMKMNDRIRSRRKELKMTQSVLAKLVGVNRVTITGWESGDYKPGGENLQALAAALEKTPQWLLDGKD	-2.82
HMYMTTADADMWKYVNTGRYNNDIQLMEEYKNRSMDSFEVITPEQQRKYNKAAMNLNSYYAWADPSYKPNP	-0.483
HMYMWQVEDLLRANELDIENIKKTIIDHYQLDDAQKSELTRWYEDLINMMRLEGVTKEGHLQINK	-2.02
HMYNSYALTARELELVNYVLKGNSRREMAEDSGLKENTVASYMKRLYRKIKVHSRKELKELFM	-0.151

Sequence	soluble fraction (log2)
HMYPDNEQTLSKLAFEFFKKRNIPISQSNINQIVTKSLGDRENLYNELLKIENFSTSGKKLTDNVIKKLIN	-0.0858
HMYPFSEETLKEKIREYLKTNRSINRRVLEREFYIRKQTALNWLNRLVDSGFLIKEGVRNSPVYFLAE	-0.884
HMYPMQNYSTIIGVIELRQQSVGYATTQKRYGIGSSTVTLIMKRFKELGLTLEELRAMPPKAVEVAFYPPE	-1.69
HMYPNEFPRKVMSVFESSGLEMFRTIEMLLAIPEYETPLPYGSGVSRSDIFVLAKSAGNLVSITV	-0.117
HMYQFFVDPGQIQGKRVTITGSDVNHIKNVLRMRIGEEIAVSNGKDGLEYRFGIDEILEDEVIGTLRFVKE	-1.61
HMYRIGELAKLADVTPDTIRYYEKQQMMDHDVRTEGGFRLYSDNDLQRLKFIRYARQLGFTLEAIRELLSI	-2.27
HMYRWSEEIFEKLRSDIMAALDLSREQNDEEIYRFIETEVEEYSQNNLLTLKEREQLEHLLFNSL	-1.44
HMYSKVSFTVSVGMTSERVSASLKALGIIDDSAKFNRYLVSNGYSTRIKVGTVELQAGQSYAEIASKLV	-3.88
HMYSLSELERIKNFLTGYMSDYSIMMLDANEITNQVDISLKDYSDDNIESIKAAVLSHGGKTDYLNFIDDS	-0.926
HMYSQEEKRYMEIMEIKPQELSAENLKKQYKKLVKKYHPDLHQDDKQAAEEKFKQLTNAYQVLMRRF	-0.474
HMYSSASKEEIDQLMKRLILNLDAKGYFWPQDKEKSLKLYLHNLFSKLPLNSSDIRFLHGLIRALSEE	-1.3
HMYSSIIGIAFTRAENKPAAPTGGSYSNPHPVDGNWKAAPYDGDGNLWYSIRHFNENVDIQDREWSDPTLG	-0.238
HMYSYSGSVINTYKVPVSVVLKDANGSAIASWDLPVDQSLGISAKDIATSSGTIEITGDGVNETKTVTFTK	-0.12
HMYTGSEGMAGLEGRAVTEVGPEAGTVLVKGEYWQARSDEPIATDRKIRVIRLEGLRLRVAEIHPEG	-0.45
HMYTPDYLSDLMVRMAHHSTAIEGNTLTQGETKSVLVDGYIPRAMDMRELNEVLNYKAFMTFLVE	-0.0939
HMYTTHTQSELNEAARFNGRATYQKGIYYNESKKEHFKVVNGKYQALPNVKQVNGDSWIDKTGITHKG	-0.324
HMYTVQQLARLAGITPRTLRHYDAIGLLKPTRVGENGYRYYGSEALLRLQSILLYRELDMPLEDIRRVLDS	-3.5
HMYVPEVPVPDLLGRSEEEAKNLIEDLGLVFKVSKREYSKEYDEGHVMEQSVDEGAKVKENYPVEVVISR	0.181
HMYYDDEELDDYRGKASDAYTAAEVEQFEEVLTTMRPEEVHGWLRSLQLRGVALPDALKDEAYMIVSEQAE	-0.0106
HMYYIITNGKYWVIENPIRPGEYMESTKSSNAKQFTFKQAKNLLNARSKKLGWIRNGYSMVGED	-2.46
